Experimental data taken from article PMC8417293, “Impact of crowded environments on binding between protein and single-stranded DNA”.

Assays:
Conditions in all cases: protein: recombinant; single strand
[1] = molecular target: T1, BsCspB (cold shock protein B) (UniProt P32081 1-67); assay: intrinsic Trp fluorescence quenching; dilute; 20 mM disodium phosphate pH 7.0, no added salt stated; fluorescence titration 298 K (0.5, 2.8 or 4 uM protein; table marks a/b not explained in the material); stopped-flow 288 K (60 or 300 nM protein); NMR 298 or 294.4 K with 5% D2O
T1 sequence (P32081 whole entry): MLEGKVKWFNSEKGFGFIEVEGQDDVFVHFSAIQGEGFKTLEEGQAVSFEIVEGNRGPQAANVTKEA

[2] = molecular target: T1, BsCspB (cold shock protein B); assay: intrinsic Trp fluorescence quenching; 300 g/L PEG1; 20 mM disodium phosphate pH 7.0, no added salt stated; fluorescence titration 298 K (0.5, 2.8 or 4 uM protein; table marks a/b not explained in the material); stopped-flow 288 K (60 or 300 nM protein); NMR 298 or 294.4 K with 5% D2O
[3] = molecular target: T1, BsCspB (cold shock protein B); assay: intrinsic Trp fluorescence quenching; 100 g/L Dex20 (series b); 20 mM disodium phosphate pH 7.0, no added salt stated; fluorescence titration 298 K (0.5, 2.8 or 4 uM protein; table marks a/b not explained in the material); stopped-flow 288 K (60 or 300 nM protein); NMR 298 or 294.4 K with 5% D2O
[4] = molecular target: T1, BsCspB (cold shock protein B); assay: intrinsic Trp fluorescence quenching; 200 g/L Dex20 (series b); 20 mM disodium phosphate pH 7.0, no added salt stated; fluorescence titration 298 K (0.5, 2.8 or 4 uM protein; table marks a/b not explained in the material); stopped-flow 288 K (60 or 300 nM protein); NMR 298 or 294.4 K with 5% D2O
[5] = molecular target: T1, BsCspB (cold shock protein B); assay: intrinsic Trp fluorescence quenching; 300 g/L ethylene glycol; 20 mM disodium phosphate pH 7.0, no added salt stated; fluorescence titration 298 K (0.5, 2.8 or 4 uM protein; table marks a/b not explained in the material); stopped-flow 288 K (60 or 300 nM protein); NMR 298 or 294.4 K with 5% D2O
[6] = molecular target: T1, BsCspB (cold shock protein B); assay: intrinsic Trp fluorescence quenching; 300 g/L Dex20 (series b); 20 mM disodium phosphate pH 7.0, no added salt stated; fluorescence titration 298 K (0.5, 2.8 or 4 uM protein; table marks a/b not explained in the material); stopped-flow 288 K (60 or 300 nM protein); NMR 298 or 294.4 K with 5% D2O
[7] = molecular target: T1, BsCspB (cold shock protein B); assay: intrinsic Trp fluorescence quenching; 300 g/L glucose; 20 mM disodium phosphate pH 7.0, no added salt stated; fluorescence titration 298 K (0.5, 2.8 or 4 uM protein; table marks a/b not explained in the material); stopped-flow 288 K (60 or 300 nM protein); NMR 298 or 294.4 K with 5% D2O
[8] = molecular target: T1, BsCspB (cold shock protein B); assay: intrinsic Trp fluorescence quenching; dilute (series b); 20 mM disodium phosphate pH 7.0, no added salt stated; fluorescence titration 298 K (0.5, 2.8 or 4 uM protein; table marks a/b not explained in the material); stopped-flow 288 K (60 or 300 nM protein); NMR 298 or 294.4 K with 5% D2O
[9] = molecular target: T1, BsCspB (cold shock protein B); assay: intrinsic Trp fluorescence quenching; 300 g/L Dex20 (series a); 20 mM disodium phosphate pH 7.0, no added salt stated; fluorescence titration 298 K (0.5, 2.8 or 4 uM protein; table marks a/b not explained in the material); stopped-flow 288 K (60 or 300 nM protein); NMR 298 or 294.4 K with 5% D2O
[10] = molecular target: T1, BsCspB (cold shock protein B); assay: intrinsic Trp fluorescence quenching; 200 g/L PEG8; 20 mM disodium phosphate pH 7.0, no added salt stated; fluorescence titration 298 K (0.5, 2.8 or 4 uM protein; table marks a/b not explained in the material); stopped-flow 288 K (60 or 300 nM protein); NMR 298 or 294.4 K with 5% D2O
[11] = molecular target: T1, BsCspB (cold shock protein B); assay: intrinsic Trp fluorescence quenching; 300 g/L PEG1 (series a); 20 mM disodium phosphate pH 7.0, no added salt stated; fluorescence titration 298 K (0.5, 2.8 or 4 uM protein; table marks a/b not explained in the material); stopped-flow 288 K (60 or 300 nM protein); NMR 298 or 294.4 K with 5% D2O
[12] = molecular target: T1, BsCspB (cold shock protein B); assay: intrinsic Trp fluorescence quenching; 100 g/L PEG8; 20 mM disodium phosphate pH 7.0, no added salt stated; fluorescence titration 298 K (0.5, 2.8 or 4 uM protein; table marks a/b not explained in the material); stopped-flow 288 K (60 or 300 nM protein); NMR 298 or 294.4 K with 5% D2O
[13] = molecular target: T1, BsCspB (cold shock protein B); assay: intrinsic Trp fluorescence quenching; 200 g/L PEG1; 20 mM disodium phosphate pH 7.0, no added salt stated; fluorescence titration 298 K (0.5, 2.8 or 4 uM protein; table marks a/b not explained in the material); stopped-flow 288 K (60 or 300 nM protein); NMR 298 or 294.4 K with 5% D2O
[14] = molecular target: T1, BsCspB (cold shock protein B); assay: intrinsic Trp fluorescence quenching; dilute (series a); 20 mM disodium phosphate pH 7.0, no added salt stated; fluorescence titration 298 K (0.5, 2.8 or 4 uM protein; table marks a/b not explained in the material); stopped-flow 288 K (60 or 300 nM protein); NMR 298 or 294.4 K with 5% D2O
[15] = molecular target: T1, BsCspB (cold shock protein B); assay: intrinsic Trp fluorescence quenching; 100 g/L PEG1 (series b); 20 mM disodium phosphate pH 7.0, no added salt stated; fluorescence titration 298 K (0.5, 2.8 or 4 uM protein; table marks a/b not explained in the material); stopped-flow 288 K (60 or 300 nM protein); NMR 298 or 294.4 K with 5% D2O

| Binder | Kd [1] [nM] | Kd [2] [nM] | Kd [3] [nM] | Kd [4] [nM] | Kd [5] [µM] | Kd [6] [nM] | Kd [7] [nM] | Kd [8] [nM] | Kd [9] [nM] | Kd [10] [nM] | Kd [11] [nM] | Kd [12] [nM] | Kd [13] [nM] | Kd [14] [nM] | Kd [15] [nM] |
| --- | --- | --- | --- | --- | --- | --- | --- | --- | --- | --- | --- | --- | --- | --- | --- |
| TTTT (ssDNA) [dT4] | 6100 ± 300 | 17000 ± 1100 |  |  |  |  |  |  |  |  |  |  |  |  |  |
| TTTTT (ssDNA) [dT5] | 750 ± 50 | 3800 ± 100 | 710 ± 20 | 680 ± 20 | 5.1 ± 0.4 | 350 ± 50 | 1310 ± 20 | 780 ± 10 |  |  |  |  |  |  |  |
| TTTTTTT (ssDNA) [dT7] | 15 ± 5 | 570 ± 30 |  |  |  | 6 ± 3 |  |  | 5 ± 3 | 90 ± 20 | 170 ± 5 | 14 ± 7 | 75 ± 15 | 7 ± 3 | 10 ± 10 |
| TTTTTT (ssDNA) [dT6] | 80 ± 10 | 580 ± 10 |  |  |  |  |  |  |  |  | 415 ± 5 |  |  | 30 ± 10 |  |
